Data on four molecules can be found in publication PMC12365907, “https://orcid.org/0000-0002-7156-8846 Tungsirisurp Sireethorn Conceptualization Methodology Formal analysis Investigation Data curation Writing – original draft Writing – review & editing”.

Data set [1] addresses T1, SARS-CoV-2 spike receptor binding domain (RBD) (SARS-CoV-2, UniProt P0DTC2 319-541). In words: ELONA. To be noted: protein: commercial; label: 5'-biotin.
Data set [2] has as its target T1, SARS-CoV-2 spike receptor binding …. The experiment in a line: fluorescent strand displacement from beads. To be noted: protein: commercial.

B1: RBD-1 aptamer (ssDNA)
DNA: CAGCACCGACCTTGTGCTTTGGGAGTGCTGGTCCAAGGGCGTTAATGGACA
For B1, the affinity in data set [1], expressed as Kd, was 4.58 ± 1.15 nM.

B2: RBD-1/MM-T9 antisense duplex (mixed)
DNA 1: B1 DNA
DNA 2: GTCGGTGCAG
As for B2, the binding result in data set [2] is on record as “binds”.

B3: RBD-1/CM antisense duplex (mixed)
DNA 1: B1 DNA
DNA 2: GTCGGTGCTG
Regarding B3, the binding result in data set [2] is on record as “binds”.

B4: RBD-1/MM-T2 antisense duplex (mixed)
DNA 1: B1 DNA
DNA 2: GACGGTGCTG
For the molecule B4, in data set [2], the binding result is “binds”.

One may read the Kd as the free concentration of one partner at which half of the binding sites on the other are occupied at equilibrium, for simple one-to-one binding. Lower therefore signals higher affinity.
